In test [1] the target is HRgpA-6H (Porphyromonas gingivalis) (UniProt P28784). Briefly: ELISA on coated HRgpA-6H, OD relative to parental Fab.
Test [2] has the same target. Briefly: ELISA, FASEBA Fab supernatant on coated HRgpA-6H.

Changes are numbered by the printed parent chain. Numbers in names are those of the source. Where “and” joins values, the source holds several entries; their conditions need not be identical. Equal entries are not always repeated.

The results in this text go back to patent publication US20240400654A1.

Chain of UniProt P28784 (P28784 228-860 limits assumed): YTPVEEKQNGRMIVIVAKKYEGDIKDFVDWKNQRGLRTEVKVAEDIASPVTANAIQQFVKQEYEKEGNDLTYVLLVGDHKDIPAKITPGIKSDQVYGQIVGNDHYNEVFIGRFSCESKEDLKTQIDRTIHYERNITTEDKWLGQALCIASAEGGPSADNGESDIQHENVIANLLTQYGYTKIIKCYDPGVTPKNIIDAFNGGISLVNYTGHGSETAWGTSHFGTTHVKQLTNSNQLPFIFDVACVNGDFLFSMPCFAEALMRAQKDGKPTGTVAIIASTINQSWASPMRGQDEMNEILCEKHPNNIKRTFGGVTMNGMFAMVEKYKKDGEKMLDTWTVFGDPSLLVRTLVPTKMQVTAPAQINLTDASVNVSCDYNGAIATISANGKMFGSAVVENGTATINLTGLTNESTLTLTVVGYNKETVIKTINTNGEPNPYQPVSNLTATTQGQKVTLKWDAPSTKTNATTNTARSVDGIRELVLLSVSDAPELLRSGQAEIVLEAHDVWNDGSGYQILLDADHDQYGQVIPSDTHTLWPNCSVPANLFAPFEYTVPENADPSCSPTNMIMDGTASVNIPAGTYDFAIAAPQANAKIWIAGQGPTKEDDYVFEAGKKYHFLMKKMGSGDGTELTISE

B1: KB001 mouse Fab variant VL A56V (Fab, V domains shown)
VH: EVQLKQSGPGLVAPSQSLSITCTVSGFSLSIYSVHWVRQPPGKGLEWLGMIWGGGSSDYNSALKSRLSISKDNSKSQVFLKMNSLQTDDTAMYYCARNGNFYAMDYWGQGTSVTVSS
VL: QIVLTQSPAIMSASLGERVTMTCTASSSVSSSFLHWYQQKPGSSPQLWIYSTSNLVSGVPARFSGSGSGTSYSLTISSMEAEDAATYYCHQYHHSPYIYTFGGGTKLEIK
Regarding B1, the Ratio OD(Variant)/OD(WT) in test [1] was 0.974 fold and 0.975 fold. Also, the OD450 nm in test [2] was 0.794 and 0.795.

B2: KB001 mouse Fab variant VL H94F (Fab, V domains shown)
VH: B1 VH
VL: B1 VL with V56A, H94F
For B2, the Ratio OD(Variant)/OD(WT) in test [1] was 0.838 fold. In test [2], the OD450 nm was 0.77.

B3: KB001 mouse Fab variant VL S57I (Fab, V domains shown)
VH: B1 VH
VL: B1 VL with V56A, S57I
B3: the Ratio OD(Variant)/OD(WT) in test [1] stood at 0.97 fold. Further, in test [2], the OD450 nm is 0.791.

B4: KB001 mouse Fab variant VL H94Y (Fab, V domains shown)
VH: B1 VH
VL: B1 VL with V56A, H94Y
B4: in test [1], the Ratio OD(Variant)/OD(WT) amounted to 0.942 fold. Moreover, the OD450 nm in test [2] stood at 0.865.

B5: KB001 mouse Fab variant VL Y97H (Fab, V domains shown)
VH: B1 VH
VL: B1 VL with V56A, Y97H
With B5, in test [1], the Ratio OD(Variant)/OD(WT) was found to be 0.982 fold. In test [2], this molecule had an OD450 nm of 0.775.

B6: KB001 mouse Fab variant VL S57N (Fab, V domains shown)
VH: B1 VH
VL: B1 VL with V56A, S57N
Take B6: the Ratio OD(Variant)/OD(WT) in test [1] is 0.997 fold. In addition, the OD450 nm in test [2] amounted to 0.813.

B7: KB001 mouse Fab variant VL A56M (Fab, V domains shown)
VH: B1 VH
VL: B1 VL with V56M
B7: in test [1], the Ratio OD(Variant)/OD(WT) was 0.983 fold and 0.86 fold. In test [2], the OD450 nm is 0.802 and 0.701.

B8: KB001 mouse Fab variant VL S95W (Fab, V domains shown)
VH: B1 VH
VL: B1 VL with V56A, S95W
With B8, the Ratio OD(Variant)/OD(WT) in test [1] is 0.875 fold and 0.86 fold. In test [2], the OD450 nm is 0.804 and 0.79.

B9: KB001 mouse Fab variant VL S57Q (Fab, V domains shown)
VH: B1 VH
VL: B1 VL with V56A, S57Q
On to B9, for which, in test [1], the Ratio OD(Variant)/OD(WT) turned out to be 0.807 fold. This molecule also came in with an OD450 nm in test [2] of 0.658.

B10: KB001 mouse Fab variant VL A56S (Fab, V domains shown)
VH: B1 VH
VL: B1 VL with V56S
Regarding B10, in test [1], the Ratio OD(Variant)/OD(WT) is 0.947 fold and 0.921 fold and 0.949 fold. Moreover, the OD450 nm in test [2] was 0.772 and 0.751 and 0.774.

B11: KB001 mouse Fab variant VL S95C (Fab, V domains shown)
VH: B1 VH
VL: B1 VL with V56A, S95C
For the molecule B11, the Ratio OD(Variant)/OD(WT) in test [1] was determined as 0.924 fold. Further, in test [2], the OD450 nm is 0.849.

B12: KB001 mouse Fab variant VL S57W (Fab, V domains shown)
VH: B1 VH
VL: B1 VL with V56A, S57W
B12: the Ratio OD(Variant)/OD(WT) in test [1] is 0.961 fold. In test [2], this molecule displayed an OD450 nm of 0.784.

B13: KB001 mouse Fab variant VL S57A (Fab, V domains shown)
VH: B1 VH
VL: B1 VL with V56A, S57A
Take B13: the Ratio OD(Variant)/OD(WT) in test [1] is 0.988 fold. Besides, the OD450 nm in test [2] stood at 0.806.

B14: KB001 mouse Fab variant VL S57L (Fab, V domains shown)
VH: B1 VH
VL: B1 VL with V56A, S57L
For the molecule B14, in test [1], the Ratio OD(Variant)/OD(WT) was found to be 0.958 fold. Besides, in test [2], the OD450 nm is 0.781.

B15: KB001 mouse Fab variant VL Y92D (Fab, V domains shown)
VH: B1 VH
VL: B1 VL with V56A, Y92D
On to B15, for which the Ratio OD(Variant)/OD(WT) in test [1] was 0.805 fold. Moreover, in test [2], the OD450 nm is 0.758.

B16: KB001 mouse Fab variant VL S95E (Fab, V domains shown)
VH: B1 VH
VL: B1 VL with V56A, S95E
On to B16, for which, in test [1], the Ratio OD(Variant)/OD(WT) was 0.931 fold and 0.893 fold. The OD450 nm in test [2] was 0.855 and 0.82.

B17: KB001 mouse Fab variant VL Q91M (Fab, V domains shown)
VH: B1 VH
VL: B1 VL with V56A, Q91M
As for B17, in test [1], the Ratio OD(Variant)/OD(WT) was 0.879 fold. Also, the OD450 nm in test [2] is 0.757.

B18: KB001 mouse Fab variant VL H90L (Fab, V domains shown)
VH: B1 VH
VL: B1 VL with V56A, H90L
On to B18, for which, in test [1], the Ratio OD(Variant)/OD(WT) is 0.911 fold and 0.806 fold. In addition, the OD450 nm in test [2] is 0.785 and 0.694.

B19: KB001 mouse Fab variant VL H90W (Fab, V domains shown)
VH: B1 VH
VL: B1 VL with V56A, H90W
Consider B19, for which the Ratio OD(Variant)/OD(WT) in test [1] was found to be 0.886 fold. This molecule also came in with an OD450 nm in test [2] of 0.763.

B20: KB001 mouse Fab variant VL Y92N (Fab, V domains shown)
VH: B1 VH
VL: B1 VL with V56A, Y92N
For B20, in test [1], the Ratio OD(Variant)/OD(WT) was 0.821 fold. The OD450 nm in test [2] was 0.773.

B21: KB001 mouse Fab variant VL S57K (Fab, V domains shown)
VH: B1 VH
VL: B1 VL with V56A, S57K
Take B21: the Ratio OD(Variant)/OD(WT) in test [1] was found to be 0.873 fold. The OD450 nm in test [2] stood at 0.712.

B22: KB001 mouse Fab variant VL S95I (Fab, V domains shown)
VH: B1 VH
VL: B1 VL with V56A, S95I
Consider B22, for which the Ratio OD(Variant)/OD(WT) in test [1] is 0.921 fold and 0.889 fold and 0.861 fold. The OD450 nm in test [2] is 0.846 and 0.817 and 0.791.

B23: KB001 mouse Fab variant VL S95H (Fab, V domains shown)
VH: B1 VH
VL: B1 VL with V56A, S95H
As for B23, in test [1], the Ratio OD(Variant)/OD(WT) stood at 0.871 fold. Also, the OD450 nm in test [2] was determined as 0.8.

B24: KB001 parental mouse Fab (FASEBA), WT clone (Fab, V domains shown)
VH: B1 VH
VL: B1 VL with V56A
Consider B24, for which, in test [1], the Ratio OD(Variant)/OD(WT) is 0.98 fold and 0.968 fold. In addition, the OD450 nm in test [2] is 0.9 and 0.889.

B25: KB001 mouse Fab variant VL S95Q (Fab, V domains shown)
VH: B1 VH
VL: B1 VL with V56A, S95Q
Regarding B25, in test [1], the Ratio OD(Variant)/OD(WT) was found to be 0.972 fold. The molecule also yielded an OD450 nm in test [2] of 0.893.

B26: KB001 mouse Fab variant VL S95F (Fab, V domains shown)
VH: B1 VH
VL: B1 VL with V56A, S95F
For B26, the Ratio OD(Variant)/OD(WT) in test [1] came out at 0.911 fold. The OD450 nm in test [2] was found to be 0.837.

B27: KB001 mouse Fab variant VL S57F (Fab, V domains shown)
VH: B1 VH
VL: B1 VL with V56A, S57F
Turning to B27, in test [1], the Ratio OD(Variant)/OD(WT) is 0.963 fold and 0.965 fold and 0.977 fold. Also, the OD450 nm in test [2] is 0.785 and 0.787 and 0.797.

B28: KB001 mouse Fab variant VL S57M (Fab, V domains shown)
VH: B1 VH
VL: B1 VL with V56A, S57M
Regarding B28, the Ratio OD(Variant)/OD(WT) in test [1] came to 0.914 fold. The molecule also had an OD450 nm in test [2] of 0.745.

B29: KB001 mouse Fab variant VL S95Y (Fab, V domains shown)
VH: B1 VH
VL: B1 VL with V56A, S95Y
Turning to B29, in test [1], the Ratio OD(Variant)/OD(WT) is 0.9 fold. Further, the OD450 nm in test [2] is 0.827.

B30: KB001 mouse Fab variant VL S95N (Fab, V domains shown)
VH: B1 VH
VL: B1 VL with V56A, S95N
For the molecule B30, in test [1], the Ratio OD(Variant)/OD(WT) is 0.94 fold and 0.962 fold. The OD450 nm in test [2] was 0.863 and 0.884.

B31: KB001 mouse Fab variant VL H93N (Fab, V domains shown)
VH: B1 VH
VL: B1 VL with V56A, H93N
For the molecule B31, the Ratio OD(Variant)/OD(WT) in test [1] amounted to 0.91 fold. The OD450 nm in test [2] was 0.857.

B32: KB001 mouse Fab variant VL Q91E (Fab, V domains shown)
VH: B1 VH
VL: B1 VL with V56A, Q91E
As for B32, the Ratio OD(Variant)/OD(WT) in test [1] is 0.823 fold and 0.806 fold and 0.814 fold. The OD450 nm in test [2] was 0.709 and 0.694 and 0.701.

B33: KB001 mouse Fab variant VL S95A (Fab, V domains shown)
VH: B1 VH
VL: B1 VL with V56A, S95A
With B33, in test [1], the Ratio OD(Variant)/OD(WT) was 0.904 fold and 0.949 fold. For the same molecule, the OD450 nm in test [2] was 0.83 and 0.872.

B34: KB001 mouse Fab variant VL S57R (Fab, V domains shown)
VH: B1 VH
VL: B1 VL with V56A, S57R
As to B34, the Ratio OD(Variant)/OD(WT) in test [1] turned out to be 0.915 fold. The same molecule returned an OD450 nm in test [2] of 0.746.

B35: KB001 mouse Fab variant VL S57E (Fab, V domains shown)
VH: B1 VH
VL: B1 VL with V56A, S57E
For the molecule B35, in test [1], the Ratio OD(Variant)/OD(WT) stood at 0.921 fold. Besides, the OD450 nm in test [2] came to 0.751.

B36: KB001 mouse Fab variant VL S95T (Fab, V domains shown)
VH: B1 VH
VL: B1 VL with V56A, S95T
Regarding B36, the Ratio OD(Variant)/OD(WT) in test [1] was determined as 0.948 fold. For the same molecule, the OD450 nm in test [2] turned out to be 0.871.

B37: KB001 mouse Fab variant VL A56P (Fab, V domains shown)
VH: B1 VH
VL: B1 VL with V56P
For B37, in test [1], the Ratio OD(Variant)/OD(WT) is 0.917 fold. Besides, the OD450 nm in test [2] worked out at 0.748.
